Experimental findings from US20200115443A1 (TRICAN BIOTECHNOLOGY, published 2020) are described below.

Assay [1] has as its target T1, complement C5 (UniProt P01031 19-1676, limits assumed). The experiment in a line: cell-based or functional assay.
In assay [2] the target is T2, VEGF-A (human, UniProt P15692-4 27-191, limits assumed). The experiment in a line: cell-based or functional assay.
In assay [3] the target is T2, VEGF-A. The experiment in a line: direct ELISA, VEGF-A coated 100 ng/well, HRP anti-human Fc detection. In general terms: An ELISA detects its analyte on a solid surface through an enzyme-linked reagent.
For assay [4], the target named is T1, complement C5. The assay is described as follows: direct ELISA, C5 coated 100 ng/well, HRP anti-human Fc detection.

T2 sequence (P15692 other isoform, or with tags, fused parts or gaps limits assumed): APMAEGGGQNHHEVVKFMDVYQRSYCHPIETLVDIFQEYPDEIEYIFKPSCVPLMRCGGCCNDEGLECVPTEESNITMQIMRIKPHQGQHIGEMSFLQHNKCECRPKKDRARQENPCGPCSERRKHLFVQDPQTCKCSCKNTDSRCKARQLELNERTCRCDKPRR

B1: bi-functional fusion protein C5V (other)
chain 1: QVQLVQSGAEVKKPGASVKVSCKASGYIFSNYWIQWVRQAPGQGLEWMGEILPGSGSTEYTENFKDRVTMTRDTSTSTVYMELSSLRSEDTAVYYCARYFFGSSPNWYFDVWGQGTLVTVSSASTKGPSVFPLAPCSRSTSESTAALGCLVKDYFPEPVTVSWNSGALTSGVHTFPAVLQSSGLYSLSSVVTVPSSNFGTQTYTCNVDHKPSNTKVDKTVERKCCVECPPCPAPPVAGPSVFLFPPKPKDTLMISRTPEVTCVVVDVSQEDPEVQFNWYVDGVEVHNAKTKPREEQFNSTYRVVSVLTVLHQDWLNGKEYKCKVSNKGLPSSIEKTISKAKGQPREPQVYTLPPSQEEMTKNQVSLTCLVKGFYPSDIAVEWESNGQPENNYKTTPPVLDSDGSFFLYSRLTVDKSRWQEGNVFSCSVMHEALHNHYTQKSLSLSLGGGGSGGGGSGGGGSSDTGRPFVEMYSEIPEIIHMTEGRELVIPCRVTSPNITVTLKKFPLDTLIPDGKRIIWDSRKGFIISNATYKEIGLLTCEATVNGHLYKTNYLTHRQTNTIIDVVLSPSHGIELSVGEKLVLNCTARTELNVGIDFNWEYPSSKHQHKKLVNRDLKTQSGSEMKKFLSTLTIDGVTRSDQGLYTCAASSGLMTKKNSTFVRVHEK
chain 2: DIQMTQSPSSLSASVGDRVTITCGASENIYGALNWYQQKPGKAPKLLIYGATNLADGVPSRFSGSGSGTDFTLTISSLQPEDFATYYCQNVLNTPLTFGQGTKVEIKRTVAAPSVFIFPPSDEQLKSGTASVVCLLNNFYPREAKVQWKVDNALQSGNSQESVTEQDSKDSTYSLSSTLTLSKADYEKHKVYACEVTHQGLSSPVTKSFNRGEC
As to B1, the “IC50, inhibition of the alternative complement pathway (hemolysis of rabbit erythrocytes by normal human serum)” value in assay [1] came out at 25.3 nM. In assay [2], the “IC50, inhibition of VEGF-dependent HUVEC proliferation (MTS)” value is 0.195 nM. Moreover, the results for the EC50 in assay [3] and in assay [4] were 0.288 nM and 3.57 nM, respectively.

The EC50 is the midpoint of the concentration-response curve. High values mean weaker potency, low ones greater potency.
